Assay results reported in publication PMC2825244.

Biological target: Chemokine receptor four (CXCR4) (human (endogenous in JJ)) (UniProt P61073)
Chain of UniProt P61073 (P61073 whole entry): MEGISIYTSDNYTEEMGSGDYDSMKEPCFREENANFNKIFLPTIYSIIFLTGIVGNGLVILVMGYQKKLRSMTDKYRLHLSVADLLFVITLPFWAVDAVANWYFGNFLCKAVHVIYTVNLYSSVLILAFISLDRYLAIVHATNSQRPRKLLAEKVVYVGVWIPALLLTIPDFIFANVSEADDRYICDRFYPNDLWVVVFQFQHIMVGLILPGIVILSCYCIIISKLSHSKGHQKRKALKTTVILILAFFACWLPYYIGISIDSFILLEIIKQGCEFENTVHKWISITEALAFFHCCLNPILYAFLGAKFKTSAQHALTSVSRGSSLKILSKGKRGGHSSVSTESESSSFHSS

MMP1 mRNA (qRT-PCR, fold) in JJ cells in hypoxia with SDF1 10 ng/ml, against 9 fold by hypoxia alone; the SDF1 mediated increase was blocked by the CXCR4 inhibitor AMD3100 0.1 μM: 23 fold
Substance: human recombinant SDF-1 (stromal cell derived factor one) (from UniProt P48061 22-93) (ligand)
